Where a chain is given by its changes, count along the chain named. Values belong to the binder of their own block, whether it stands above or below them.
Columns and labels:
[1] = molecular target: T1, recombinant human Tie1-Fc (Tie1 extracellular domain fused to human Fc) (human, UniProt P35590 25-759); assay: SPR (BIAcore 3000), CM5 chip; format of this row not stated
T1 construct: also called human Tie1-Fc fusion protein; not shown: human Fc
T1 sequence: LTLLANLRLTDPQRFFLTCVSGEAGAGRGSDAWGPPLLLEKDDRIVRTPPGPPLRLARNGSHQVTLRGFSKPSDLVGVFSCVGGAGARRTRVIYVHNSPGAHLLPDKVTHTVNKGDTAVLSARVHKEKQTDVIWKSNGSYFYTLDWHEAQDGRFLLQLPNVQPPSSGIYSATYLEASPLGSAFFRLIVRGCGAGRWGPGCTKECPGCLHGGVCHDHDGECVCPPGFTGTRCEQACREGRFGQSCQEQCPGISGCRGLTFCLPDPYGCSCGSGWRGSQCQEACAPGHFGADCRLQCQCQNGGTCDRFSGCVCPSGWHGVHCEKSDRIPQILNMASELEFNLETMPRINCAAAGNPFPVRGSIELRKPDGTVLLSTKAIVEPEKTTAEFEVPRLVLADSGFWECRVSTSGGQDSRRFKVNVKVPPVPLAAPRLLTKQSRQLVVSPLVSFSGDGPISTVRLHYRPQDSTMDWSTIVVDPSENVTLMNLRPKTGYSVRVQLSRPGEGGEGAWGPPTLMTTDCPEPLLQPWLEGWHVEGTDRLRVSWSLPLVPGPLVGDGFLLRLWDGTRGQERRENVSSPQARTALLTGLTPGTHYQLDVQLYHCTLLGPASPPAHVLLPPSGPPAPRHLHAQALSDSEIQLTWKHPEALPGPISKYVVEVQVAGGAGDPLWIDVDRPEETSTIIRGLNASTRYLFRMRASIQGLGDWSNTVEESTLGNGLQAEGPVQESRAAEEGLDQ
Protocol: (§1) Affinity analysis of the Fab and IgGs was performed using surface plasmon resonance using a BIAcore 3000 instrument. For this analysis both dimeric (Tie1-Fc fusion protein) and monomeric (Tie1-HIS) versions of the extracellular domain of the Tie1 were used. The sensor chips used in these experiments were CM5 (dextran-coated) which allow immobilization of proteins to the chip via standard amine coupling chemistries. The concentration of flowed antibody was determined using a surface plasmon resonance based method. Using a high-density protein A sensor chip, under mass transport limited conditions, the response signal is dependent only on the concentration of the antibody in the sample under test. This approach allows a precise determination of the antibody concentration, a parameter important for accurate determination of the KD.
470 RUs of Tie1 HIS protein were coated on a CM5 sensor chip and 5, 20, 100, and 500 nM of the Fab flowed over the chip at four different flow rates ([…]), rates in which the system is not mass transport limited. Kinetic data was typically determined using a range of analyte concentrations and three different chip coating densities. The data from the lowest coating density that gave a good signal was typically chosen, this was often in a range from 50-100 RUs. Using such low coating densities allowed the sensor curves to be fit using BIAEVALUATION™ 3.0 software to a 1:1 model, often even when using a bivalent analyte (IgG or Tie1-Fc fusion protein). For bivalent analytes, when fit to a 1:1 model was not possible, the curves were fit using a 2:1 model.

[2] = molecular target: T1, recombinant human Tie1-Fc (Tie1 …); assay: SPR, Tie1-Fc immobilized on CM5 sensor chip, bivalent anti-Tie1 as analyte
Protocol: as §1

[3] = molecular target: T1, recombinant human Tie1-Fc (Tie1 …); assay: SPR, Tie1-Fc immobilized on the sensor chip, Fab as analyte
Protocol: as §1

[4] = molecular target: T2, recombinant mouse Tie1-Fc (mouse, UniProt Q06806 23-755); assay: as above
T2 construct: extracellular domain; also called Mouse Tie 1-Fc antigen; mouse Tie1-Fc fusion protein; not shown: Fc
T2 sequence (looked up): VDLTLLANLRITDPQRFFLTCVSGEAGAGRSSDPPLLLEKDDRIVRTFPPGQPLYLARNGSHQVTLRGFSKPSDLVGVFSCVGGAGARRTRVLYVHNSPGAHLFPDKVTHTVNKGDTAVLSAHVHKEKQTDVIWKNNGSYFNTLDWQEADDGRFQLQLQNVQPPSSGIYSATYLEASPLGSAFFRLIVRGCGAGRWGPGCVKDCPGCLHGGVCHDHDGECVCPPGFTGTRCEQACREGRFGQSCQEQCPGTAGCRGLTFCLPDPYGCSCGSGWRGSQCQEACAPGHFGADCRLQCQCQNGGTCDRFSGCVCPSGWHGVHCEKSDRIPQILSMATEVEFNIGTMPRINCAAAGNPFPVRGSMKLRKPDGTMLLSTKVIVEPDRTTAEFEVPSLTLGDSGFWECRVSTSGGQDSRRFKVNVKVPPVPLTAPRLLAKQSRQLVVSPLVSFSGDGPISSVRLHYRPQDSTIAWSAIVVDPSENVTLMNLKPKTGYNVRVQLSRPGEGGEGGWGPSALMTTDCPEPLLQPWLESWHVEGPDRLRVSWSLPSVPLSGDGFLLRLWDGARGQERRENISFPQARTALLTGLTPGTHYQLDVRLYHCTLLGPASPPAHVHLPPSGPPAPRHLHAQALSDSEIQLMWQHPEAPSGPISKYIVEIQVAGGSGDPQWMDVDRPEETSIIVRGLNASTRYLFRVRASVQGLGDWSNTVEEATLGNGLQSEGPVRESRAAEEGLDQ
Protocol: as §1

Kd [1]: 5.4 nM
koff [1]: 4.47e-05 s⁻¹
kon [1]: 8260 M⁻¹ s⁻¹
B1: parental E3 Fab (Fab, V domains shown)
VH: EVQLLESGGGLVQPGGSLRLSCAASGFTFSMYGMVWVRQAPGKGLEWVSVISPSGGNTGYADSVKGRFTISRDNSKNTLYLQVNSLRAEDTAVYYCARAPRGYSYGYYYWGQGTLVTVSS
VL: DIQMTQSPLSLSASVGDRVTITCRASQGIGHYLAWYQQKPGKVPKLLIYTASTLQSGVPSRFSGSGSGTDFTLTINSLQPEDVATYYCQQFNSYPHTFGQGTRLDIK
notes: also called E3 Fab parental; parental Fab E3

Kd [2]: 0.2 nM
fold increase in affinity against the anti-Tie1 Fab [2]: > 10 fold
Kd [1]: 5.2 nM
koff [1]: 3.67e-05 s⁻¹
kon [1]: 7090 M⁻¹ s⁻¹
B2: DX-2220 (full length, IgG1, germlined human anti-Tie1 antibody E3b) (antibody, V domains shown)
VH: B1 VH with V83M
VL: DIQMTQSPSSLSASVGDRVTITCRASQGIGHYLAWYQQKPGKVPKLLIYTASTLQSGVPSRFSGSGSGTDFTLTISSLQPEDVATYYCQQFNSYPHTFGQGTRLEIKR
notes: also called E3b-IgG1; germlined E3b IgG1

Kd [3]: ~3 nM
Kd [4]: ~3 nM
Kd [1]: 4.7 nM
koff [1]: 4.41e-05 s⁻¹
kon [1]: 9300 M⁻¹ s⁻¹
B3: E3b Fab (heavy and light chain germlined E3 Fab) (Fab, V domains shown)
VH: B1 VH with V83M
VL: B1 VL with L9S, N76S, D105E
notes: The germlined heavy variable domain is printed with limits only under DX-2240; also called Fab E3b; germlined (E3b)
